Laboratory results as given in patent publication US8889130B2, “Treatment of osteoarthritis and pain” (Abbvie Inc., priority 2011, dated 2014).

Assays:
male Swiss Webster mice = experiment: Joint instability model (JIM) of osteoarthritis, cartilage degeneration histology; type: in vivo, mouse
Method: The design of study of the in vivo activity of a mIL-1α/β DVD-Ig molecule in the joint instability model (JIM) of osteoarthritis in mice is shown in Table 19. All groups contained 25 mice (n=25), weighing approximately 30 grams (BW=30 g). The study was terminated after 21 days. Two and a half month old, male Swiss Webster mice (25/group/time point), housed 5/cage, were anesthetized with isoflurane anesthesia. Anterior cruciate ligament (ACL) trauma was administered on the right and left knees on day 0 in an attempt to induce OA lesions. Intraperitoneal (ip) treatments with IL-1 inhibitory antibodies IL-1α (9H10) and IL-1β (10G11), alone and in combination, were initiated the day of ACL trauma and continued every 4th day (q4d) for 20 days. The vehicle for the non-treatment control was PBS. Right and left knees were harvested on day 21, and histopathologic alterations were scored and characterized. Data were analyzed using only joints that had proliferative responses indicative of successful instability induction. The proliferative response/instability was scored 0-3, and only unstable joints (scores of 1, 2, or 3) were used in the final analysis. Medial and lateral femoral and tibial cartilage degeneration was scored for severity of cartilage degeneration on a scale 0-5. Four days after the last antibody dose, blood was drawn from all animals from each group for serum harvest. Body weights were recorded weekly. […]
Following 2-3 days in a decalcifying fixative (Surgipath Decalifier, Surgipath Medical Ind., Inc., Richmond Va.), both knee joints were trimmed of extraneous tissue, embedded in the frontal plane and sectioned. […] Slides were examined by a board-certified veterinary pathologist blinded to study group designation, and were scored according to the method below. […]
Medial and lateral femoral and tibial cartilage degeneration were scored for severity of cartilage degeneration using the following system: Depth/extent of chondrocyte and proteoglycan loss with fibrillation: […]
The design of this study was similar to that described above in Example 3.3.1. […] Body weights were recorded weekly. […]

Male SV129 mice = experiment: Destabilization of medial meniscus (DMM) model of osteoarthritis, cartilage degeneration (Chambers scores); type: in vivo, mouse; details: for mean sum Chambers scores and mean maximum Chambers scores (cartilage degeneration): Example 3.3.6 (FIG. 7)
Description: (§1) Male SV129 mice weighing approximately 30 grams, housed 5/cage, were anesthetized on Day 0 with ketamine/xylazine cocktail, administered intraperitoneally (ip), and then the medial collateral ligament was exposed by blunt dissection, and transected to reflect the meniscus toward the femur. The joint space was closed with 8-0 vicryl suture. The skin was closed with wound glue. For sham surgeries, a vertical skin incision was made over the medial aspect of the knee and the joint capsule was opened. The capsule was closed with 8-0 vicryl suture and the skin was closed with wound glue. Groups of animals were then treated with intraperitoneal (ip) injections of antibody or vehicle according to the study design table below. Two sex-matched, age-matched, and strain-matched naïve mice were also included in the study. Animals were euthanized after 8 weeks of treatment, and knee joints were harvested in 10% neutral buffered formalin.
Formalin-fixed samples were decalcified, and specimens were sectioned in the frontal plane into 15 step sections each. Each section was approximately 6 μm thick, and step sections were separated by 70 μm. All slides were stained with toluidine blue (T. Blue). Slides were assessed according to the Chambers method (Chambers et al. (2001) Arthritis Rheum 44:1455-65) for cartilage degeneration (see below) by a board-certified veterinary pathologist. Each of the four cartilage surfaces, the medial femoral condyle (MFC), the medial tibial plateau (MTP), the lateral femoral condyle (LFC), and the lateral tibial plateau (LTP), was scored from 0-6 according to the scale in the table below.
as §1, with “8-0 vicryl suture, and the” for “8-0 vicryl suture and the”, “injections of anti-mIL-1α monoclonal antibody, anti-mIL-1β (alone or in combination), mIL-1α/βDVD-Ig binding protein, or vehicle” for “injections of antibody or vehicle”, “design table below (Table 24). Animals were” for “design table below. Two sex-matched, age-matched, and strain-matched naïve mice were also included in the study. Animals were”, “weeks of treatment and knee” for “weeks of treatment, and knee”
Male SV129 mice weighing approximately 30 grams had the medial collateral ligament exposed by blunt dissection, and transected to reflect the meniscus toward the femur. The joint space was closed with 8-0 vicryl suture. The skin was closed with wound glue. For sham surgeries, a vertical skin incision was made over the medial aspect of the knee and the joint capsule was opened. The capsule was closed with 8-0 vicryl suture, and the skin was closed with wound glue. Groups of animals were then treated per os (po) or via intraperitoneal (ip) injections of vehicle or treatments according to the study design table below. Three sex-matched, age-matched, and strain-matched naïve mice were also included in the study. Animals were euthanized after 4 weeks of treatment, and knee joints were harvested in 10% neutral buffered formalin.

[1] = system: zymosan-induced IL-6 production; experiment: Zymosan-induced IL-6 production in joint instability model study; type: in vivo, mouse; details: day 21 of JIM; 50 mg/kg zymosan ip, serum 4 hours later; mAbs 6 mg/kg each; DVD-Ig 6 or 12 mg/kg
Method: As a pharmacodynamic readout to determine if anti-IL-1α and anti-IL-1β monoclonal antibodies as well as mIL-1α/β DVD-Ig binding protein were functional and capable of neutralizing IL-1α and IL-1β in vivo, zymosan-induced (IL-1α and IL-1β dependent) production of interleukin 6 (IL-6) was measured in a joint instability model study of OA.
Briefly, on day 21 in the model, zymosan was suspended in PBS vehicle and placed in boiling water for half an hour, then allowed to cool before using. The mice were then injected ip with 50 mg/kg zymosan in suspension (mixed well before injection) in 0.5 ml PBS. The mice were then bled 4 hours after zymosan injection. Serum was collected for IL-6 measurements.

male DBA-1 mice = experiment: Collagen-induced arthritis mouse model (rheumatoid arthritis); type: in vivo; details: therapeutic mode; 1-3 mg/kg intraperitoneally every other day after disease onset
Method: The therapeutic effects of anti-IL-1α, anti-IL-1β, combined anti-IL-1α/anti-IL-1β, and murine IL-1α/β DVD4-Ig, were evaluated in a collagen-induced arthritis mouse model well known in the art. Briefly, male DBA-1 mice were immunized with bovine type II collagen in CFA at the base of the tail. The mice were boosted with Zymosan intraperitoneally (i.p) at day 21. After disease onset at day 24-27, mice were selected and divided into separate groups of 10 mice each. […] To neutralize IL-1, mice were injected every other day with 1-3 mg/kg of anti-IL-1α mAb, anti-IL-1βmAb, combination of anti-IL-1α and anti-IL-1β mAbs, or murine IL-1α/β DVD4-Ig intraperitoneally. Mice were carefully examined three times a week for the visual appearance of arthritis in peripheral joints, and scores for disease activity determined.

B1: mIL-1α/βDVD-Ig: mouse anti-mouse DVD-Ig, V(anti-mIL-1β 10G11)-linker-V(anti-mIL-1α 9H10)-murine constant region (Cγ2a and Cκ) (antibody)
heavy: EVQLQQSGPELVKPGTSVKMSCKTSGYTFTSYVMHWVKQKPGQGLEWIGYIIPYNDNTKYNEKFKGKATLTSDKSSSTAYMELSSLTSEDSAVYYCARRNEYYGSSFFDYWGQGTTLTVSSAKTTAPSVYPLAPQVILKESGPGILQPSQTLSLTCSFSGFSLSTYGTAVNWIRQPSGKGLEWLAQIGSDDRKLYNPFLKSRITLSEDTSNSQVFLKITSVDTEDSATYYCANGVMEYWGLGTSVTVSSAKTTAPSVYPLAPVCGDTTGSSVTLGCLVKGYFPEPVTLTWNSGSLSSGVHTFPAVLQSDLYTLSSSVTVTSSTWPSQSITCNVAHPASSTKVDKKIEPRGPTIKPCPPCKCPAPNLLGGPSVFIFPPKIKDVLMISLSPIVTCVVVDVSEDDPDVQISWFVNNVEVHTAQTQTHREDYNSTLRVVSALPIQHQDWMSGKEFKCKVNNKDLPAPIERTISKPKGSVRAPQVYVLPPPEEEMTKKQVTLTCMVTDFMPEDIYVEWTNNGKTELNYKNTEPVLDSDGSYFMYSKLRVEKKNWVERNSYSCSVVHEGLHNHHTTKSFSRTPGK
light: DIQMTQSPASLSASVGETVTITCRGSGILHNYLVWYQQKQGKSPQLLVYSAKILADGVPSRFSGSGSGTQYSLKINSLQPEDFGSYYCQHFWSTPFTFGSGTKLEIKRADAAPTVSIFPPSIVMTQTPKFLLVSAGDRVTITCKASQSVNHDVAWYQQMPGQSPKLLIYFASNRYTGVPDRFTGSGYGTDFTFTISTVQAEDLAVYFCQQDYSSPYTFGGGTKLEIKRADAAPTVSIFPPSSEQLTSGGASVVCFLNNFYPKDINVKWKIDGSERQNGVLNSWTDQDSKDSTYSMSSTLTLTKDEYERHNSYTCEATHKTSTSPIVKSFNRNEC
Q: Which results are given for B1?
A: cartilage degeneration (male Swiss Webster mice; 3 mg/kg DVD-Ig binding protein): had not effect on cartilage degeneration; progression of osteoarthritis (cartilage degeneration scores, histopathological parameters) (male Swiss Webster mice; Example 3.3.2 (FIG. 3), DVD-Ig 6 or 12 mg/kg ip three times weekly, mAbs 6 mg/kg each Q4D, day 21): significantly inhibited the progression of osteoarthritis; cartilage degeneration (total sum score) (Male SV129 mice; Example 3.3.5 (FIG. 6), 8 weeks of treatment ip, 6 mg/kg): significantly reduced cartilage degeneration; mean sum Chambers scores and mean maximum Chambers scores (cartilage degeneration) (Male SV129 mice; 8 weeks, DVD-Ig at 1.5 mg/kg (excepted from the significant reduction)): except for IL-1α/β DVD at 1.5 mg/kg; mean sum Chambers scores and mean maximum Chambers scores (cartilage degeneration) (Male SV129 mice; 8 weeks, DVD-Ig at 3 and 6 mg/kg): significantly reduced; dose effect for mean sum Chambers scores (Male SV129 mice; Example 3.3.6, 8 weeks, DVD-Ig 1.5, 3, 6 mg/kg): statistically significant dose effect; zymosan-induced IL-6 production [1]: significantly neutralized zymosan-induced IL-6 production; reduction in mean arthritis score compared to control group (male DBA-1 mice): 47%
